In a protein production outcome set (Wang et al. 2014):

Experiment: label from the status in PepcDB records
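Also: failed if final PepcDB status was selected cloned or expressed and not failed if soluble or beyond.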

| Sequence | protein production |
| --- | --- |
| MRMKHLTVAALTLLLSVSCSQRQEDYPFRNPDLPIDERIDDLLKRLTAEEKIGQMMNTTPAIERLGIPEYDWWNEALHGVARAGKATVFPQAIAMAATFDDDALYETFTMVSDEARAKYHQYQKNKEYDRYKGLTFWTPNINIFRDPRWGRGMETYGEDPYLTERMGVAVVKGLQGDDPKYFKTHACAKHYAVHSGPEWNRHEFDVTVTPRDLWQTYLPAFEALVKKGNVQEVMCAYNRYQGKPCCSSDKLLIDILRNSWGYENIILSDCGAINDFWQRDERTPRHETHPDAESASADAVLNGTDLECGNSYKALIKALKEGKISENDLDVSLRRLLKGRFELGMFDPDERVPYAQIPYNVVESPEHVAQALEMAHKSMVLLKNKNNTLPLSKTIRKIAVVGPNAADSTMLWANYNGFPTHTVTILEGIRNKVPDTEVIYELGCNHAADFVIQDLGNHITSPAGQGFASEFYNNTEFKGEAVYKGLASQLHYTTGGNTQFAPNVNLTNFTARFTGEFEAPETEQVEIKLSGNDAFRLFIGDEKVAEVWENEYGAEKTYMLNAEKGKKYPVKIEYMQRTGSADLNFQIGTRRPVDYAATAAKVKDADVIVYVGGISPRLEGEEMPVNVEGFKKGDRTNIEIPKVQQEMVKALKATGKPVVYVLCTGSALALNWEDANIDAILNAWYGGQEAGTAVADILFGDYNPSGRLPVTFYKSIDQLPDFEDYSMKGRTYRYMTETPLYPFGYGLSYTNFAYRNAKLSSGKITKDQSVTLTFDIANTGKMDGDEVAQIYIKNPNDPEGPIKALKAFLRVHVKAGDSQEVNIELTPEAFHSFNDNTQTMEVRPGKYQILYGGSSDEKALERLELTIE | failed |
| MRMKRFLTIVQILLVVIIIIFGYKIVQTYIEDKQERANYEKLQQKFQMLMSKHQEHVRPQFESLEKINKDIVGWIKLSGTSLNYPVLQGKTNHDYLNLDFEREHRRKGSIFMDFRNELKNLNHNTILYGHHVGDNTMFDVLEDYLKQSFYEKHKIIEFDNKYGKYQLQVFSAYKTTTKDNYIRTDFENDQDYQQFLDETKRKSVINSDVNVTVKDKIMTLSTCEDAYSETTKRIVVVAKIIKVS | not failed |
| MRMQRQGCVQAQIAGQSGMLTYWDNRRDMPMIASHRWTALFVLVILMPLPAFAGTPEGGYRQPPEPLLSVMRAPLNPSPRPDPTGRTLLLVQRTQYPPIARVAEPYLKLAGVRVEPRTHSRHDMSNGYGIRSCLEGFSLVDIASGKQTAVSLPAGACPALPVWSPDGRRFAFNNTAADHVELWVGDVATGQVRKIDGVQLNPVLGGEIQWLGGSSTLLLKTVPQDLGPAPRKAAVPPGPEVKETIQGKGESSTYEARDTLSSPQDEALFTYYATAQLLTVDAATGSQRKLGTPAVYSNVDGAPDGRHVLVERLKPPYSYVTTYARFAHDVAVLDLETGNERVLANLPVADRVPVQGVPTGPRAYAWRANQPATLVWAEALDGGDWKTSVPARDTLMTLAAPFTAKPRALARVQQRYAGLSWFAEGGQALLDEYDENRHWRRTTLVDADRPGAGERVLFDLSTDDLYADPGLPEMRVLANGQAVLREAQGALFLSGQGASPAGDRPFLDRYTLATGKSQRLFRSDAHVDEVFFGFAGDETSRLLTWHQSLTDPPNVYVRTLGEPLPAPAAGEAAFASTATPVTHFADPTPLVRQIKKRLVSYKRKDGVDLSFTLYTPPGYKEGTRVPAILYAYPLDYADPSKAGQVSGASERDFTRLNYYQLLLLAGYAIIDDAAFPIVGDPKTAYDTYLQQLVDDATAAVDKAVELGVVDRQRIGVTGHSHGALMTANLLAHTDLFRAGAATSGSYNKTLTPFGFQSERRSFWKAPDVYAQASAFFHADKINEPLLIVHGMDDANPGTETTQAPRLFQAIRGNGGTARLVLLPFEPHWYSARESNEDLVAEMLEWFDRYVKNAPPRDAQHANDVR | failed |
| MRMVAHRFLRPQEAHMQVLVRDNNVDQALRILKKKLQREGVFREMRLREAFEKPSIKKAREKAEAIGRQRKLARKQMQREGLLPTKPRKDKLEHHHHHH | failed |
| MRNKDLEPHSFELWLNAAKTNLDKYEMALIITATLGLRRGEVMGLRNESIKISHDQINDADVAQISIDMQRNTNELNGGPLKTKSSYRTIWAFGKTVDHLKYAMITADNLRQRNNIQAEKHWLWLNNDGNPLHPTHLNRLMRRVSNRSGVEVYPHLLRHYFATQAIAANKPQIDVMHYLGHKNLQMTADYTRSTKAASLNVFNSIDKFLLEHHHHHH | failed |
| MRNKNMSTIYQTSATASAGRNGVVSTEDKLLELNLSYPKEMGGSGTATNPEQLFAVGYAACFSNAILHVAREAKVALKEAPVTATVGIGPNGQGGFALSVALAAHIALEDEQARQLVTVAHQVCPYSNAVRGNIDVQVSVNGLAL | not failed |
| MRNLKELKWSDLKTGIFFLLGLGFAAYLGLVIGKNTSIFTGVTTIKVMTRDVNGLAENNFVSVAGKKIGTVSKLDFSTQNDSLFVVAELKLQNEYANLVTKDSKASIRSLGVLGDKYVDIKAGTGKPVKEGDFIQLVPEDGLSALTDNAKSTIEKLNTLLDKLNNGDGPAGRLISDKQMGEDLQKTVMNLRKSSDELTRVSAELHNGKGLLPKLINDKSLADNTEQTIVNLKNAAAETETLMKQLNEGKGTLGKLNSDPALYNNLSKTLISLDTLLIDLKKRPNRYVRFTLF | failed |
| MRNLKLRYCKELNAVAHPQHLLLQPELNGGASDIYFVVADNKIYAVQESGDVRLKVIADLPDIVGVEFLQLDNAICVASGAGEVILVDPQTGATSEGTFCDVGIESMAWSPNQEVVAFVTRTHNVVLMTSTFDVIAEQPLDAELDPDQQFVNVGWGKKETQFHGSEGKQAAKQKESDSTFIRDEQELNQDVSISWRGDGEFFVVSYVAAQLGRTFKVYDSEGKLNHTAEKSANLKDSVVWRPTGNWIAVPQQFPNKSTIALFEKNGLRHRELVLPFDLQEEPVVQLRWSEDSDILAIRTCAKEEQRVYLYTIGNYHWYLKQVLIFEQADPLALLHWDTRCGAEHTLHVLKESGKHLVYRWAFAVDRNNSIVGVIDGKRLLLTDFDEAIVPPPMSKIVLKFETYINAFISHGTSLWVYTCDRKIYLNEHIHTLGKELQKPIMLMPDAELSGLHLANLTHFSPHYLLATHSSAGSTRLLLLSYKDNDNKPGEWFYRVHSSVRINGLVNAVAVAPYAMNEFYVQTVNNGHTYEVSLKADKTLKVERSYVQLHEPADQIDWVIVKGCIWDGYTGALVTLRNQHLLHIDGYRIGEDVTSFCVVTNYLVYTQLNAMHFVQLDDRRQVASRNIERGAKIVTAVARKARVVLQLPRGNLEAICPRVLVLELVGDLLERGKYQKAIEMSRKQRINLNIIFDHDVKRFVSSVGAFLNDINEPQWLCLFLSELQNEDFTKGMYSSNYDASKQTYPSDYRVDQKVEYVCRLLEQQMNRFVSRFRLPLITAYVKLGCLEMALQVIWKEQQEDASLADQLLQHLLYLVDVNDLYNVALGTYDFGLVLFVAQKSQKDPKEFLPYLNDLKALPIDYRKFRIDDHLKRYTSALSHLAACGEQHYEEALEYIRKHGLYTDGLAFYREHIEFQKNIYVAYADHLRAIAKLDNASLMYERGGQLQQALLSAKHTLDWQRVLVLAKKLSEPLDQVAQSLVGPLQQQGRHMEAYELVKEHCQDRKRQFDVLLEGHLYSRAIYEAGLEDDDVSEKIAPALLAYGVQLESSLQADLQLFLDYKQRLLDIRRNQAKSGEGYIDTDVNLKEVDLLSDTTSLHSSQYSGTSRRTGKTFRSSKNRRKHERKLFSLKPGNPFEDIALIDALHNHVTKIAQQQQPVRDTCKALLQLANAADADPLAAALQREFKTLLQAVDAALDEIWTPELRGNGLMADHLTGPNVDYLALQKEQRYALLSPLKRFKPQLIMMDWQHEILQ | failed |
| MRNLSRRIQSHQIRLRPPPFGAKRPVRRSESTSPPPRRRLIVGKRNRSAQVQYSMSHGLTHLSFWPLLFATLALTHVTIVSVTIFLHRHQAHRALSLHPLASHFFRFWLWLTTATVTKEWVSIHRKHHARCETPDDPHSPQCLGIFTVLLRGWMLYRKEARNTATLAQFGNGTPDDWLERKLYSRFPDLGITLMLALNLLLFGIGGLGVWAVQMLWIPFWAAGVVNGLGHHLGYRNFETPDASTNLWPIGFIIGGEELHNNHHAYPASAKFSSRRWEIDIGWLYIRLMTLLKLAKIRNMPPKTIIHTAEPSVDMDTVKAVLRNRAHVLSLYGRRVIVPVLRSEQAKSPKAGRRLLRQTRPLLLREYIKADPAAWHNFSRMLEDSQTLATIFQFKQQLKAVWTDSFTSHEERLERLRAWCLQAKQSDLPWLQHFADTLSGYRLQPAH | failed |
| MRNPFERMPTVLTADELIDKAFRRAEKAASSFKPRGNKVKKARLREELRVRTVSNVVRDNLRKVLERTPGLSTLPKFYQELVDVLVDRDTFHKAMAGIDWAIRIIRELEERYVERIRYSNDPNEIAELRRQFYGRVASVLRDIDDRLRYLNKAREVLKDLPVVDLEIPTVVIAGHPNVGKSTLLKALTTAKPEIASYPFTTRGINVGQFEDGYFRYQIIDTPGLLDRPISERNEIEKQAILALRYLGNLIIYIFDPSEHCGFPLEEQIHLFEEVHGEFKDLPFLVVINKIDVADEENIKRLEKFVKEKGLNPIKISALKGTGIDLVKEEIIKTLRPLAEKVAREKIERELRRYRSYLLEHHHHHH | failed |
| MRNTDDYIIFYHLVEQGSFSSAARHMELTKSVVSKRIAKLEQELGVQLLYRTTRTLTLTEAGQSFFVHAKAVYKAVATAEESIVGLGKNLSGNIKITVPTISGELILPGVISEFNDKYPDINIDMELDNRFVDIVNERFDLAIRTGMLPDSSLIARKLVDANWVVCASPKYLAKHGIPKQPIELTKHNCLVYSYQETGAREWAFKAGDKMYQVTVDGNLCTNNSSALRNVALLGQGVIYVPRVLVYEDLKQGSLIQLFKEETAKCLGIYAVYPYTRQQPEKIKIFIDHLYNSFQSQNHRF | failed |
| MRNTILFGVSMILLANLCFGIMSAFVKITADYFSPMENVFYRSITMTLLLLLIYPFKPYRLKSYKQGGFKKLAFRVVVGGLAMLAFFYNIEKISLATATAFSQCAPIYTVLLSPLLLKEKLKRSTLISACIGIVGVVLISDPSVENVGPVEIFMGILSGIFVSLAYITLRDLREYYDKQAVILAFAFGMSLLGLVGMFIDIPFLSTGIHVPRKEDILWISLIGISGTLGQYFLTYAYMNAPAGIIAPIEYTRIVWGLLFGLYLGDTFLDLKSSLGVALILCSGLLIALPALLKELKKI | failed |
| MRPGSVKRLYGVNTVQYAPCFMRDHRRDGIPHGNLPLELDAFVGRGAQLAELARTLDSARLVTLTGSGGVGKSRLAARAAARRAPRGGVWRVQLAPVRDEEFVDYAVVEALGLTDHTTRLPRETLLAHLAERELLLLLDGVEHLVDACAALVTELLGRAPGLTVLAVGRRPLGVAGERLVPLAPLGTEEAVELLTVRAGQRSVARDHDADPDADQREMRELCRRLDGIPLAIELAAGRLDALSPGQMLRRLDDRFRLLTGGDRTALPRHRTLRTAIGWSHELCTPPERLLWARLSVFAGPFDLEAAEYVCSGDGMPADDVLDVLCALLSQSVLTREESPAGVRYRMLDTVRAYGADWLAATGDADRLRRRHRDWYVGLATWCELEWFSPRQGEVAARVDAELPNLRSALEHCLDEPDGAHLGQYLAGALWFHWVGCGRLSEGRHWLEQAVRLDAEPTAGEQSRLKALWVLAYVAILQGDTVPALAALQECREEAERSANPTAAAYAEHRTGCLALVTDDLPRAETLLRSALHRYREIGELNSNVLMGQVELAMARAFQGDLPDAVRLCEDVRQVCEDHGERWARGYALYVLAYAAWSDGEPVRARELLADCLGSAHRFRDQLGSVLAVELLALVTVAEGDAAEAAVLQGAAGRMWPSVGLPLFGSAHYNAPHELCEAAAREQLGDERYEECVRHGARLGRREAVARALRRPGARASLPAPRPTAVRRAPAGARTAKPAASPTRKGGETAG | failed |
| MRPKANQNHKLKVLLVFLLATLILIFIVRSTLTSSQEHQTPQETRSTRCSGACNKLPRSLAQALIHYSTSVITPQQTLKEIAVSSRVLGKKSPCNFLVFGLGHDSLMWSSLNYGGRTVFLEEDEAWIKQIKRRFPMLESYHVTYDSKVNQADNLIEVGKGPECTAIGDPRYSMCQLALKGLPAEIYETGWDLIMVDAPTGYYDEAPGRMTAIYTAGMMARNRKQGGETDVFVHDVNREIEDKFSKAFLCEGYMKKQEGRLRHFIIPSYRDGSESESNRPFCP | failed |
